The values below are quoted from earlier work in publication PMC8821138 (Food chemistry, 2021).

The conditions of the series: ref Parisi et al., 2020; Yagami et al., 2000.

Take “NaD1: defensin, literature example of digestion resistance (RECKTESNTFPGICITKPPCRKACISEKFTDGHCSKILRRCLCTKPC; UniProt Q8GTM0 26-72, looked up)”: the “Resistance in in vitro gastrointestinal digestions” value was “demonstrated resistance”.
